{"source": "patent US20130323249A1", "about": "(published 2013)", "binders": {"B1": {"name": "G12 anti-PD-L1 antibody (antibody, V domains shown)", "VH": "EVQLVQSGAEVKKPGASVKVSCKASGYTFTGYYMHWVRQAPGQGLEWMGWINPNSDNTGSAQKFQGRVFMTKTTSLNTAYMELSGLRSEDTAIYYCARERSSGYFDFWGQGTLVTVSS", "VL": "not shown", "notes": "Fully human antibody of an IgG class; detected with anti-human IgG gamma-chain specific secondary; also called anti-PD-L1 mAb G12"}}, "key": {"[1]": {"target": "T1, human PD-L1 expressed on the surface of cells (human, UniProt Q9NZQ7 19-290)", "T1 construct": "whole, on cells; also called CHO-PD-L1; PD-L1 on ES-2 ovarian carcinoma cells", "T1 sequence (Q9NZQ7 19-290)": "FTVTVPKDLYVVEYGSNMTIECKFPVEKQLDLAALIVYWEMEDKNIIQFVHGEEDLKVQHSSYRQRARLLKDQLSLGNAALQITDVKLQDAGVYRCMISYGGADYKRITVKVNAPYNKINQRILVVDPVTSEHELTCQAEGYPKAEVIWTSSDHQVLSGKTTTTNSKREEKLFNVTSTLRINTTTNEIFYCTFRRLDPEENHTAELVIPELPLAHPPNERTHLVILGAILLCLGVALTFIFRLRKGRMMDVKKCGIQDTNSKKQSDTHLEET", "experiment": "flow cytometry competition: CHO-PD-L1 cells pre-incubated with G12, then rhPD-1-Fc, detected with Alexa-Fluor 647 anti-PD-1 antibody", "description": "Data points are shown as the median fluorescence detected in the FL-4H channel +/− Std Error."}, "[2]": {"target": "T1, human PD-L1 expressed on the surface of …", "experiment": "flow cytometry (Intellicyt HTFC) on CHO-PD-L1 cells, PE anti-human IgG detection", "protocol": "(§1) After 0.5 hr incubation, cells were washed 1× with FACS Buffer and resuspended in 50 μl PE-conjugated, goat anti-human IgG (γ-chain specific) secondary antibody (Southern Biotech Cat #2040-09). Cells were further incubated for 0.5 hr and then washed 1× with FACS Buffer. Cells were resuspended in 25 μl FACS Buffer and the median fluorescence intensity in the FL2-H channel was determined using the Intellicyt HTFC flow cytometer."}, "PD-L1/Fc": {"target": "T2, PD-L1/Fc (human, UniProt Q9NZQ7 19-238, limits assumed)", "T2 construct": "also called rhPD-L1; not shown: Fc part (detected with anti-human Fc)", "T2 sequence (Q9NZQ7 19-238 limits assumed)": "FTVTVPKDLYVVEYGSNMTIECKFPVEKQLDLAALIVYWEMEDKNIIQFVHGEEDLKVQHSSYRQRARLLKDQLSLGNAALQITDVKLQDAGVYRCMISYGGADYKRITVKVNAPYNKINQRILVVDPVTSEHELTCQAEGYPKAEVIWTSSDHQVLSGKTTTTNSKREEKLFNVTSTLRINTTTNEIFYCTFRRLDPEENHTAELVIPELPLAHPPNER", "experiment": "competition ELISA: G12 IgG pre-mixed with PD-L1/Fc, binding to coated PD1/His detected with anti-human Fc HRP", "protocol": "A 96-well ELISA plate was coated with 1 ng/μL PD1/His at 4° C. overnight, then blocked with casein in PBS. […] Transferred 25 μl the mixtures to the ELISA plate and incubated 30 min with shaking. Washed 3 times with PBST. Added HRP conjugated Goat anti-human Fc (1:500 in casein), used TMB as substrate and developed 30 min. 2M H₂SO₄ was added to stop the reaction. Read the OD at 450 nm."}, "rhPD-L1": {"target": "T3, rhPD-L1 (human, UniProt Q9NZQ7 19-238, limits assumed)", "T3 construct": "also called recombinant human PD-L1", "T3 sequence (Q9NZQ7 19-238 limits assumed)": "as above", "experiment": "Biacore SPR, rhPD-L1 immobilized on CM5 chip, antibody in solution, 1:1 Langmuir fit", "protocol": "All measurements were conducted in HBS-EP buffer with a flow rate of 30 μL/min. Antibody was diluted so as to obtain a series of concentrations. A 1:1 (Langmuir) binding model was used to fit the data."}, "[3]": {"target": "T1, human PD-L1 expressed on the surface of …", "experiment": "flow cytometry (Intellicyt HTFC) on ES-2 ovarian carcinoma cells treated with IFNγ for 18 hr, PE anti-human IgG detection", "protocol": "as §1"}}}
{"binder": "B1", "values": [{"measurement": "IC50", "setting": "[1]", "value": 1.76, "unit": "nM"}, {"measurement": "EC50", "setting": "[2]", "value": 1.71, "unit": "nM"}, {"measurement": "IC50", "setting": "PD-L1/Fc", "value": 0.0729, "unit": "nM"}, {"measurement": "Kd", "setting": "rhPD-L1", "value": 0.0374, "unit": "nM"}, {"measurement": "koff", "setting": "rhPD-L1", "value": 0.00049, "unit": "s⁻¹"}, {"measurement": "kon", "setting": "rhPD-L1", "value": "1.31e+07", "unit": "M⁻¹ s⁻¹"}, {"measurement": "EC50", "setting": "[3]", "value": 0.0458, "unit": "nM"}]}
